From PMC3819411

Biological target: Bardet-Biedl syndrome 5 protein (BBS5), endogenous in bovine rod outer segments (bovine (endogenous in rod outer segments))
Assay: co-IP

With “arrestin1 (Arr1), endogenous in bovine rod outer segments (from UniProt P08168 1-404) (natural protein)” the reduction of co-precipitated Arr1 after light or phorbol ester against dark was 50%.
